# Data reported in paper PMC10404701.
# Target: TTLL7-treated microtubules (mouse brain tubulin) (mouse (endogenous in brain)) (UniProt P68369)
# Experiment: TIRF microscopy, single-molecule imaging (kymographs, dwell time); MTs immobilised on a cover glass by a tubulin antibody; Kif5c-GFP in imaging buffer (BRB80, 1 mM ATP, 20 μM taxol); 35 °C; dwell times from kymographs, events shorter than 0.2 s left out, single exponential fit
# UniProt P68369, sequence (P68369 whole entry, chain 1 of 2): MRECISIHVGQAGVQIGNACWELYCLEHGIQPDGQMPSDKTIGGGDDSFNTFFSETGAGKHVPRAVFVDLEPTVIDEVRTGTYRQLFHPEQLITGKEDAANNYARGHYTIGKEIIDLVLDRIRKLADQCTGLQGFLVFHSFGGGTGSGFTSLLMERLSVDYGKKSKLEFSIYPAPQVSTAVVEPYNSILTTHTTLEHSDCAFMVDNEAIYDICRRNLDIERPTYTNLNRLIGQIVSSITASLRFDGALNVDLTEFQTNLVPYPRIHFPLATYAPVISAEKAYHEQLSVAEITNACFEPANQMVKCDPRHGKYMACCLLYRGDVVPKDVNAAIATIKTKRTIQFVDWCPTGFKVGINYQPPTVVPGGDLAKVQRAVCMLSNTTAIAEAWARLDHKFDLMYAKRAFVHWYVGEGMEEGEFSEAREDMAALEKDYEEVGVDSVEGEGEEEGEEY
# UniProt P68369, sequence (Q7TMM9 whole entry, chain 2 of 2, further chain): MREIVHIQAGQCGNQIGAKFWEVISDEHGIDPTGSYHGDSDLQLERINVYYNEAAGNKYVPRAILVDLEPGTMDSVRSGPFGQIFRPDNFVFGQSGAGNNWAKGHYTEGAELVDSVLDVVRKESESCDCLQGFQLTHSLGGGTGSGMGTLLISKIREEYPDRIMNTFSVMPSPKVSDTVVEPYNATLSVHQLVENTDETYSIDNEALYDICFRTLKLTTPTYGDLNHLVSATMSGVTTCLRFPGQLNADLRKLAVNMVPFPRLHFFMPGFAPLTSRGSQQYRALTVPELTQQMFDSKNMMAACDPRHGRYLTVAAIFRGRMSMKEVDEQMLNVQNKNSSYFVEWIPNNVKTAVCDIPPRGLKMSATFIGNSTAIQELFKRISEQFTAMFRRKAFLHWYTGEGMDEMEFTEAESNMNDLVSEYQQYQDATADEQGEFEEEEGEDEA
substance,measurement,value
Kif5c-GFP (amino acids: 1–430) (from UniProt P56536 1-430) (domain or fragment),dwell time,0.5 s
